Data published in patent US9127130B2, “Polylysine dendrimer contrast agent” (STARPHARMA PTY LTD., priority 2006, dated 2015).
Where two headings read alike, the source gives them in different places.

Experiments:
[1] = cited from earlier work
human thrombi = assay: MRI of in vitro formed human plasma thrombi stained with Gadolinium loaded antibody-dendrimer constructs; assay type: cell-based
Experimental: Antibody-Dendrimer constructs (1.5 nmol) were loaded with Gadolinium by adding 64 nmol GdCl3.6H2O in PBS (0.1M, pH 7.4) overnight at room temperature under shaking. Excess Gadolinium was removed by dialysis (10,000 Dalton dialysis membrane, 12 h against 500 mL PBS with 3 buffer changes every 4 h).
To form human thrombi in vitro 1 mL platelet rich plasma (citrated blood spun down at 1000 rpm for 10 min) was mixed with 100 μL ADP, 88 μL Actin, 25 μL 1 M CaCl2 in a 1.5 mL reaction tube. Samples were incubated for 12 min at 37° C. in a water bath, incubated with antibody-dendrimer fusion product for another 30 min at 37° C. under continuous rotation. Thrombi were washed 3 times with 2 mL PBS for 10 min and fixed in formalin solution (1%) before imaging.
MRI of thrombi was performed on a 4.7 Tesla animal MRI scanner (Biospin Bruker). T1 weighted images with TE/TR 15 ms/350 ms were taken with a resolution of 512×512 μm (FOV 7 cm, average 4). 10 slices of 1 mm thickness were taken.

Substance	stability of the conjugate ([1]; pH 4)	stability of the conjugate ([1]; pH 5)	stability of the conjugate ([1]; acidic conditions (pH 4-6))	further results
α-methoxy-ω-{N-(2-octadecyloxy-[1,3]dioxolan-4-yl)methylamido}-polyethyleneglycol110	good stability	good stability	–	–
MAL-(CH2)2CONH-PEG1100-CO-NEOEOEN[Su(NPN)2][Lys]8[Su-p-Bn-DTPA]16 [Example 7v]	–	–	–	MRI signal, control experiment (human thrombi; non reduced C-terminal cysteine antibody incubated with dendrimer): did not show any MRI signal; MRI signal, control experiment (human thrombi; non-modified antibody (no Traut's reagent) incubated with dendrimer): did not show any MRI signal
[TFA.NH2(CH2)5NHSu]NEOEOEN[Su(NPN)2]Lys8[Su-p-Bn-DTPA]16 [Example 9iv]	–	–	–	MRI signal, control experiment (human thrombi; antibody incubated with dendrimer but without the Transglutaminase coupling enzyme): did not show any MRI signal
α-methoxy-ω-{N-(2-methyl-s-octadecyloxy-[1,3]dioxan-5-yl)-amido}-polyethyleneglycol110	–	–	not stable	–
α-methoxy-ω-{N-2-(3-hydroxypropyl-cholesterylcarbarnate)-2-methyl-[1,3]dioxan-5-yl-amido}-polyethyleneglycol110	–	–	not stable	–
α-methoxy-ω-{N-(2-cholesteryloxy-[1,3]dioxolan-4-yl)methylamido}-polyethyleneglycol110	moderately less stable	very stable	–	–
